According to patent US20130137856A1, “PROTEIN BINDING DOMAINS STABILIZING FUNCTIONAL CONFORMATIONAL STATES OF GPCRS AND USES THEREOF” (priority 2010, published 2013):

Biological target: β2AR-T4L (β2AR with the third intracellular loop replaced by T4 lysozyme, truncated at position 365) (human) (UniProt P07550)
Experiment: cell-based or functional assay

High affinity state Ki of (-)-isoproterenol, [3H]-DHA competition binding, β2AR-T4L in HDL particles + 1 µM NB80 (β2AR-T4L alone: 33.5): 0.56 nM
fold increase of the affinity of isoproterenol: 60 fold
B1: Nanobody-80 (Nb80) (VHH, not shown: small tags and cut ends)
VHH: QVQLQESGGGLVQAGGSLRLSCAASGSIFSINTMGWYRQAPGKQRELVAAIHSGGSTNYANSVKGRFTISRDNAANTVYLQMNSLKPEDTAVYYCNVKDYGAVLYEYDYWGQGTQVTVSS
